The values below come from publication PMC5526835.

The assay addresses PCM1 (endogenous) [human (endogenous in HEK293A)]. The assay is described as follows: GFP-TRAP pull-down and immunoblot, quantified. The following applies: read off a plot, scale: relative protein level normalized to ponceau. In general terms: A western blot detects proteins with antibodies after separation by electrophoresis.

Turning to “GFP-GABARAP mutant G116A [human] / PCM1 (endogenous) [human (endogenous in HEK293A)] chain 1 G116A”, the response (EBSS (ES) for 2 hr) stood at 0.85, the response (EBSS + BAFA (EB) for 2 hr) is 1.2 and the response (full medium (FM)) is 1.
